Measurements taken from article PMC5427286.
“And” between values parts separate entries of the source, which are not always exact repeats. Equal entries are not always repeated.

How the values were obtained:
[1] = molecular target: Hsp21^V181A, non-dodecameric mutational variant of Hsp21 (A. thaliana) (UniProt P31170); assay: SEC-SAXS; online SEC-SAXS, Superdex 200 Increase 10/300, 50 mM HEPES pH 7.5, 100 mM NaCl, 0.1% Tween 20, 0.15 ml/min; retention times 80-84 min; EOM with a pool of dimers and hexamers
[2] = molecular target: Hsp21 after limited proteolysis with trypsin (NTR degraded) (A. thaliana) (UniProt P31170); assay: native gel or EMSA; non-denaturing PAGE of purified protein; also of samples withdrawn during 1-30 min of limited trypsin proteolysis

Chain of Hsp21 after limited proteolysis with trypsin (NTR degraded) (P31170 44-227): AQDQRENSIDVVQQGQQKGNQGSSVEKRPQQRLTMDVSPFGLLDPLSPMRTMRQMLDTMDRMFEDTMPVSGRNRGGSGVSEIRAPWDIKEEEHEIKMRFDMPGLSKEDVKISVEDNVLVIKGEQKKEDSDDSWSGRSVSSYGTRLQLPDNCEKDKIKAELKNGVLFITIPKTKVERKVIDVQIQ

Substance | stoichiometry N [1] | stoichiometry N [2]
Hsp21^V181A, non-dodecameric mutational variant of Hsp21 (from UniProt P31170 44-227) (natural protein) | 2 and 6 | 
Hsp21 after limited proteolysis with trypsin (NTR degraded) (from UniProt P31170 44-227) (domain or fragment) |  | 12
